# Laboratory results as given in patent US9050374B2, “Inhibitors against endosomal/lysosomal enzymes” (UNIVERSITY COURT OF THE UNIVERSITY OF DUNDEE, priority 2011, dated 2015).
# Entries after “also recorded” stand apart in the source; their conditions may differ. Where a SMILES comes first, the peptide text is derived from it. [ ]: non-standard residue; d: D form. The star is where a group is joined. Sta = CC(C)C[C@H](N)[C@@H](O)CC(=O)O; Isovaleryl = CC(C)CC(=O)*
# T1: AEP (Homo sapiens, UniProt Q99538)
# T1 sequence (Q99538 18-323): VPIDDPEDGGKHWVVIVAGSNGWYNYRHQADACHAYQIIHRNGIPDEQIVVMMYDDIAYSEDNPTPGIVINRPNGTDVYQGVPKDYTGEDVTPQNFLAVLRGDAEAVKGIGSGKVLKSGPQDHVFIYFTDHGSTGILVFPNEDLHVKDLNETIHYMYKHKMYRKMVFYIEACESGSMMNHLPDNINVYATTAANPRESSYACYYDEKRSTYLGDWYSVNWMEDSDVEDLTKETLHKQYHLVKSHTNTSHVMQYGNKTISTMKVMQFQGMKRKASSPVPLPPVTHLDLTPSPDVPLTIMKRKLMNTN
# B1: cystatin C: naturally occurring 14 kDa protein that inhibits PLCPs and AEP (protein, listed as Homo sapiens)
# chain: MAGPLRAPLLLLAILAVALAVSPAAGSSPGKPPRLVGGPMDASVEEEGVRRALDFAVGEYNKASNDMYHSRALQVVRARKQIVAGVNYFLDVELGRTTCTKTQPNLDNCPFHDQPHLKRKAFCSFQIYAVPWQGTMTLSKSTCQDA
# modifications: Cystatin C
# B2: T102C: cystatin C mutant with threonine 102 replaced by cysteine, C-terminal 6His-tag (protein)
# chain: SSPGKPPRLVGGPMDASVEEEGVRRALDFAVGEYNKASNDMYHSRALQVVRARKQIVAGVNYFLDVELGRTTCTKCQPNLDNCPFHDQPHLKRKAFCSFQIYAVPWQGTMTLSKSTCQDAHHHHHH
# How the values were obtained:
# [1] = Solubility in aqueous media; format: physicochemical; conditions: applicant's own observation
# [2] = tested on: endo-lysosomal proteases of purified lysosomes from mouse macrophages; test: In vitro digest of apo-HRP with purified macrophage lysosomes; format: biochemical; conditions: SDS-PAGE
# Description: Lysosomes isolated from bone-marrow derived macrophages using a Percoll density-gradient fractionation (400 ng/μL, 3.6 μL) were resuspended in assay buffer (50 mM Citrate, pH 4.5, 0.5% Triton X-100; 59 μL) Inhibitor (70 μM; 12 μL in PBS+5% DMSO) was added and the mixture incubated for 15 minutes. Protein substrate (1 mg/mL in PBS, 9 μL) was added to the mixture and the reaction was incubated at 37° C. At the indicated timepoints 20 μL of the reaction mixture was removed and boiled with LDS-sample buffer and analysed by SDS-PAGE.
# Cathepsin D and E = conditions: read-out: Ki for inhibition of Cathepsin D and E; cited from earlier work
# [3] = cited from earlier work
# COS-7 cells, EGFr = test: Effect on EGF receptor downregulation and EGF signalling (Western blot); format: cell-based
# Description: COS7 cells growing in 12-well tissue culture plates were preincubated for 1 hour with or without cystatin C (0.35 mg/ml) or CPI (0.32 mg/ml) and then stimulated with 100 ng/ml EGF for the times shown. The cells were scraped from the well in 50 μl lysis buffer containing 50 mM Tris, 150 mM NaCl, 1 mM EGTA, 1 mM EDTA, 1% NP40 plus protease inhibitors (Roche, Miniprotease tablet). […] The blot was then stripped and reprobed for phosphor-Erk (p42/44 MAP kinase; Cell signalling) and as as loading control, Rsk2 (Santa Cruz) with appropriate secondary antibodies. The signals were quantitated using ImageJ analysis software.
# AEP = target: T1, AEP; conditions: via a distinct binding site; read-out: Ki for inhibition of AEP; cited from earlier work
# mouse Cathepsin L = target: T2, mouse Cathepsin L (Mus musculus, UniProt P06797); test: Inhibition studies of recombinant Cathepsin L; format: biochemical; conditions: compared among mutants R77C, L117C, T102C; 5 ng Cathepsin L/well
# T2 construct: purchased R&D systems
# T2 sequence (P06797 114-333 limits assumed): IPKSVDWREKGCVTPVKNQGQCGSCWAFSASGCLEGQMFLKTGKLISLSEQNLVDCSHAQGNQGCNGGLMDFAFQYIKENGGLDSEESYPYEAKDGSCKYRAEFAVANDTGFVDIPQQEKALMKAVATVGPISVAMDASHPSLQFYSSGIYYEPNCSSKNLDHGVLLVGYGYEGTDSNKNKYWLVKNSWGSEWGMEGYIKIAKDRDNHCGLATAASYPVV
# Description: All protease inhibition studies were carried out as described previously^7-9 on a FLUOstar Optima Fluorimeter (BMG) with 360 nm excitation and 460 nm emission wavelength filters as described previously.^1-2,9-10 Recombinant Cathepsin D and Cathepsin S were purchased from R&D Systems.
# The mixture was gently shaken at room temperature for 5 minutes prior to the addition of Z-Leu-Arg-AMC (40 μM in assay buffer, made from a 1 mM DMSO Stock solution). 7-amino-4-methylcoumarin release was measured by fluorescence spectroscopy over time. Initial rates were plotted against inhibitor concentration^11.
molecule,measurement,setting,value
CC(C)CC(=O)N[C@H](C(=O)N[C@H](C(=O)N[C@@H](CC(C)C)[C@@H](O)CC(=O)N[C@@H](C)C(=O)N[C@@H](CC(C)C)[C@@H](O)CC(=O)O)C(C)C)C(C)C [pepstatin A] (Isovaleryl-VV[Sta]A[Sta]-OH),"water solubility, in words",[1],insolubility; also recorded: very insoluble
same,stabilization of apo-HRP against lysosomal degradation,"[2]; FIG. 9, listed as pepstatin",little or no stabilization
same,Ki,Cathepsin D and E,100 pM
same,"solubility in aqueous media, in words",[3],virtual insolubility in aqueous media
B1,stabilization of apo-HRP against lysosomal degradation,"[2]; FIG. 9, listed as Cystatin C",appears to protect a fragment only
same,stabilization of apo-HRP against lysosomal degradation,"[2]; FIG. 9, listed as cystatin",little or no stabilization
same,EGFr level / downregulation after EGF challenge,"COS-7 cells, EGFr; 1 hour preincubation, 100 ng/ml EGF up to 90 min, Western blot",suppressed EGFr downregulation but not to the same extent as CPI
same,activation of MAP kinases Erk1/2 (check for inhibitor toxicity),"COS-7 cells, EGFr; COS-7 cells stimulated with EGF",normally
same,Ki,AEP,200 pM
B2,inhibitory properties of cystatin C mutants,mouse Cathepsin L,most favourable inhibitory properties
